Numbered stars: 1 amine (or outer) side, 2 acyl side, 3 side chain; on linkers, the order of the positions; unused ones are H or OH. Square brackets hold non-standard residues; d marks the D form. Side chains are listed from the residue outwards. Ends that are not written are not given here. * marks the point of attachment. 40K‑TE PEG = 40 kDa PEG covalently bound via thioether, formed by reaction of the free thiol of the peptide (Cys side chain) with an iodoacetic-functionalized PEG; γGlu = O=C(O)[C@H](CCC(=O)[*:2])N[*:1]; Palmitoyl = CCCCCCCCCCCCCCCC(=O)*; Aib = CC(C)(N)C(=O)O
Experiments:
Experiment in all cases: cell-based or functional assay
GIP receptor = target: T1, GIP receptor (UniProt P48546 22-466)
T1 sequence (looked up): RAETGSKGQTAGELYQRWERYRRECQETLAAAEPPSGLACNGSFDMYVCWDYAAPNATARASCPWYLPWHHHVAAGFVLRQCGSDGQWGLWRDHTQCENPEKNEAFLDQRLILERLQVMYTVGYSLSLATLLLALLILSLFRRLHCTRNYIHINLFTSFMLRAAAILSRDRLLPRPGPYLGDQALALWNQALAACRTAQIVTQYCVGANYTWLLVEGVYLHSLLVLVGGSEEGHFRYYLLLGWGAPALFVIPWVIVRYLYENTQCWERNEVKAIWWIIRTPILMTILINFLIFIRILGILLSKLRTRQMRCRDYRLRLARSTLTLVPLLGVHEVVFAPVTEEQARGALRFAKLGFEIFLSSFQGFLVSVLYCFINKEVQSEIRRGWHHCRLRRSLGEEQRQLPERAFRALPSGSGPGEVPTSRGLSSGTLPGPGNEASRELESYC

GLP-1 receptor = GLP-1 receptor (UniProt P43220 24-463, limits assumed)
glucagon receptor = glucagon receptor (UniProt P47871 26-477, limits assumed)
Sequence of glucagon receptor (P47871 26-477 limits assumed): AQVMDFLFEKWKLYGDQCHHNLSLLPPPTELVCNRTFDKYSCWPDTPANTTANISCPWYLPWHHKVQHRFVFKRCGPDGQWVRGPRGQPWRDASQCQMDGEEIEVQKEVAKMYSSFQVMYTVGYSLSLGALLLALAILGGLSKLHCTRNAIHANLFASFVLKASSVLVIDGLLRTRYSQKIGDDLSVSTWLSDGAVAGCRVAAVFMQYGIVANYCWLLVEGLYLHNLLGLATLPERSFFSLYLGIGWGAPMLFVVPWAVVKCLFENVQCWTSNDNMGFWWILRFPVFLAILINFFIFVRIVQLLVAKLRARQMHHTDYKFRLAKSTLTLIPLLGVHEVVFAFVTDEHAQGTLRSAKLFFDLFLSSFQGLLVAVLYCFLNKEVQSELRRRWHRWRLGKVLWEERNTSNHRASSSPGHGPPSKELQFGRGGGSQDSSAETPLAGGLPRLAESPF

B1: peptide of SEQ ID NO: 32 (peptide)
peptide: H[Aib]QGTFTSDK([γGlu-γGlu-Palmitoyl])SKYLD[Aib]RAAQDFVQWLMDTK[dA]-OH
modifications: N-terminus assumed
SMILES: CCCCCCCCCCCCCCCC(=O)N[C@@H](CCC(=O)N[C@@H](CCC(=O)NCCCC[C@H](NC(=O)[C@H](CC(=O)O)NC(=O)[C@H](CO)NC(=O)[C@@H](NC(=O)[C@H](Cc1ccccc1)NC(=O)[C@@H](NC(=O)CNC(=O)[C@H](CCC(N)=O)NC(=O)C(C)(C)NC(=O)[C@@H](N)Cc1c[nH]cn1)[C@@H](C)O)[C@@H](C)O)C(=O)N[C@@H](CO)C(=O)N[C@@H](CCCCN)C(=O)N[C@@H](Cc1ccc(O)cc1)C(=O)N[C@@H](CC(C)C)C(=O)N[C@@H](CC(=O)O)C(=O)NC(C)(C)C(=O)N[C@@H](CCCNC(=N)N)C(=O)N[C@@H](C)C(=O)N[C@@H](C)C(=O)N[C@@H](CCC(N)=O)C(=O)N[C@@H](CC(=O)O)C(=O)N[C@@H](Cc1ccccc1)C(=O)N[C@H](C(=O)N[C@@H](CCC(N)=O)C(=O)N[C@@H](Cc1c[nH]c2ccccc12)C(=O)N[C@@H](CC(C)C)C(=O)N[C@@H](CCSC)C(=O)N[C@@H](CC(=O)O)C(=O)N[C@H](C(=O)N[C@@H](CCCCN)C(=O)N[C@H](C)C(=O)O)[C@@H](C)O)C(C)C)C(=O)O)C(=O)O
EC50 (nM) at GIP receptor (GIP receptor): 2.08 nM | EC50 (nM) at GLP-1 receptor (GLP-1 receptor): 0.008 nM | EC50 (nM) at glucagon receptor (glucagon receptor): 0.007 nM

B2: peptide of SEQ ID NO: 30 (peptide)
peptide: H[Aib]QGTFTSDK([γGlu-Palmitoyl])SKYLD[Aib]RAAQDFVQWLLDGRG-NH2
modifications: N-terminus assumed
SMILES: CCCCCCCCCCCCCCCC(=O)N[C@@H](CCC(=O)NCCCC[C@H](NC(=O)[C@H](CC(=O)O)NC(=O)[C@H](CO)NC(=O)[C@@H](NC(=O)[C@H](Cc1ccccc1)NC(=O)[C@@H](NC(=O)CNC(=O)[C@H](CCC(N)=O)NC(=O)C(C)(C)NC(=O)[C@@H](N)Cc1c[nH]cn1)[C@@H](C)O)[C@@H](C)O)C(=O)N[C@@H](CO)C(=O)N[C@@H](CCCCN)C(=O)N[C@@H](Cc1ccc(O)cc1)C(=O)N[C@@H](CC(C)C)C(=O)N[C@@H](CC(=O)O)C(=O)NC(C)(C)C(=O)N[C@@H](CCCNC(=N)N)C(=O)N[C@@H](C)C(=O)N[C@@H](C)C(=O)N[C@@H](CCC(N)=O)C(=O)N[C@@H](CC(=O)O)C(=O)N[C@@H](Cc1ccccc1)C(=O)N[C@H](C(=O)N[C@@H](CCC(N)=O)C(=O)N[C@@H](Cc1c[nH]c2ccccc12)C(=O)N[C@@H](CC(C)C)C(=O)N[C@@H](CC(C)C)C(=O)N[C@@H](CC(=O)O)C(=O)NCC(=O)N[C@@H](CCCNC(=N)N)C(=O)NCC(N)=O)C(C)C)C(=O)O
EC50 (nM) at GIP receptor (GIP receptor): 9.06 nM | EC50 (nM) at GLP-1 receptor (GLP-1 receptor): 0.0082 nM | EC50 (nM) at glucagon receptor (glucagon receptor): 0.933 nM

B3: peptide of SEQ ID NO: 31 (peptide)
peptide: H[Aib]QGTFTSDK([γGlu-γGlu-Palmitoyl])SKYLD[Aib]RAAQDFVQWLMKGRG-OH
modifications: N-terminus assumed
SMILES: CCCCCCCCCCCCCCCC(=O)N[C@@H](CCC(=O)N[C@@H](CCC(=O)NCCCC[C@H](NC(=O)[C@H](CC(=O)O)NC(=O)[C@H](CO)NC(=O)[C@@H](NC(=O)[C@H](Cc1ccccc1)NC(=O)[C@@H](NC(=O)CNC(=O)[C@H](CCC(N)=O)NC(=O)C(C)(C)NC(=O)[C@@H](N)Cc1c[nH]cn1)[C@@H](C)O)[C@@H](C)O)C(=O)N[C@@H](CO)C(=O)N[C@@H](CCCCN)C(=O)N[C@@H](Cc1ccc(O)cc1)C(=O)N[C@@H](CC(C)C)C(=O)N[C@@H](CC(=O)O)C(=O)NC(C)(C)C(=O)N[C@@H](CCCNC(=N)N)C(=O)N[C@@H](C)C(=O)N[C@@H](C)C(=O)N[C@@H](CCC(N)=O)C(=O)N[C@@H](CC(=O)O)C(=O)N[C@@H](Cc1ccccc1)C(=O)N[C@H](C(=O)N[C@@H](CCC(N)=O)C(=O)N[C@@H](Cc1c[nH]c2ccccc12)C(=O)N[C@@H](CC(C)C)C(=O)N[C@@H](CCSC)C(=O)N[C@@H](CCCCN)C(=O)NCC(=O)N[C@@H](CCCNC(=N)N)C(=O)NCC(=O)O)C(C)C)C(=O)O)C(=O)O
EC50 (nM) at GIP receptor (GIP receptor): 2.34 nM | EC50 (nM) at GLP-1 receptor (GLP-1 receptor): 0.007 nM | EC50 (nM) at glucagon receptor (glucagon receptor): 0.016 nM

B4: peptide of SEQ ID NO: 27 (peptide)
peptide: H[dS]QGTFTSDK([γGlu-Palmitoyl])SKYLDERAAQDFVQWLLKGRG-NH2
modifications: N-terminus assumed
SMILES: CCCCCCCCCCCCCCCC(=O)N[C@@H](CCC(=O)NCCCC[C@H](NC(=O)[C@H](CC(=O)O)NC(=O)[C@H](CO)NC(=O)[C@@H](NC(=O)[C@H](Cc1ccccc1)NC(=O)[C@@H](NC(=O)CNC(=O)[C@H](CCC(N)=O)NC(=O)[C@@H](CO)NC(=O)[C@@H](N)Cc1c[nH]cn1)[C@@H](C)O)[C@@H](C)O)C(=O)N[C@@H](CO)C(=O)N[C@@H](CCCCN)C(=O)N[C@@H](Cc1ccc(O)cc1)C(=O)N[C@@H](CC(C)C)C(=O)N[C@@H](CC(=O)O)C(=O)N[C@@H](CCC(=O)O)C(=O)N[C@@H](CCCNC(=N)N)C(=O)N[C@@H](C)C(=O)N[C@@H](C)C(=O)N[C@@H](CCC(N)=O)C(=O)N[C@@H](CC(=O)O)C(=O)N[C@@H](Cc1ccccc1)C(=O)N[C@H](C(=O)N[C@@H](CCC(N)=O)C(=O)N[C@@H](Cc1c[nH]c2ccccc12)C(=O)N[C@@H](CC(C)C)C(=O)N[C@@H](CC(C)C)C(=O)N[C@@H](CCCCN)C(=O)NCC(=O)N[C@@H](CCCNC(=N)N)C(=O)NCC(N)=O)C(C)C)C(=O)O
EC50 (nM) at GIP receptor (GIP receptor): 2.12 nM | EC50 (nM) at GLP-1 receptor (GLP-1 receptor): 0.005 nM | EC50 (nM) at glucagon receptor (glucagon receptor): 0.022 nM

B5: peptide of SEQ ID NO: 14 (peptide)
peptide: H[Aib]QGTFTSDYSKYLDERRA[Aib]EFVC(40K‑TE PEG)WLLDT-NH2
EC50 (nM) at GIP receptor (GIP receptor): 33.7 nM | EC50 (nM) at GLP-1 receptor (GLP-1 receptor): 0.076 nM | EC50 (nM) at glucagon receptor (glucagon receptor): 0.365 nM

B6: peptide of SEQ ID NO: 29 (peptide)
peptide: H[Aib]QGTFTSDK([γGlu-γGlu-Palmitoyl])SKYLD[Aib]RAAQDFVQWLL[Aib]GRG-NH2
modifications: N-terminus assumed
SMILES: CCCCCCCCCCCCCCCC(=O)N[C@@H](CCC(=O)N[C@@H](CCC(=O)NCCCC[C@H](NC(=O)[C@H](CC(=O)O)NC(=O)[C@H](CO)NC(=O)[C@@H](NC(=O)[C@H](Cc1ccccc1)NC(=O)[C@@H](NC(=O)CNC(=O)[C@H](CCC(N)=O)NC(=O)C(C)(C)NC(=O)[C@@H](N)Cc1c[nH]cn1)[C@@H](C)O)[C@@H](C)O)C(=O)N[C@@H](CO)C(=O)N[C@@H](CCCCN)C(=O)N[C@@H](Cc1ccc(O)cc1)C(=O)N[C@@H](CC(C)C)C(=O)N[C@@H](CC(=O)O)C(=O)NC(C)(C)C(=O)N[C@@H](CCCNC(=N)N)C(=O)N[C@@H](C)C(=O)N[C@@H](C)C(=O)N[C@@H](CCC(N)=O)C(=O)N[C@@H](CC(=O)O)C(=O)N[C@@H](Cc1ccccc1)C(=O)N[C@H](C(=O)N[C@@H](CCC(N)=O)C(=O)N[C@@H](Cc1c[nH]c2ccccc12)C(=O)N[C@@H](CC(C)C)C(=O)N[C@@H](CC(C)C)C(=O)NC(C)(C)C(=O)NCC(=O)N[C@@H](CCCNC(=N)N)C(=O)NCC(N)=O)C(C)C)C(=O)O)C(=O)O
EC50 (nM) at GIP receptor (GIP receptor): 1.65 nM | EC50 (nM) at GLP-1 receptor (GLP-1 receptor): 0.007 nM | EC50 (nM) at glucagon receptor (glucagon receptor): 0.014 nM

B7: peptide of SEQ ID NO: 28 (peptide)
peptide: H[dS]QGTFTSDK([γGlu-Palmitoyl])SKYLDERAAQDFVQWLLDGRK-NH2
modifications: N-terminus assumed
SMILES: CCCCCCCCCCCCCCCC(=O)N[C@@H](CCC(=O)NCCCC[C@H](NC(=O)[C@H](CC(=O)O)NC(=O)[C@H](CO)NC(=O)[C@@H](NC(=O)[C@H](Cc1ccccc1)NC(=O)[C@@H](NC(=O)CNC(=O)[C@H](CCC(N)=O)NC(=O)[C@@H](CO)NC(=O)[C@@H](N)Cc1c[nH]cn1)[C@@H](C)O)[C@@H](C)O)C(=O)N[C@@H](CO)C(=O)N[C@@H](CCCCN)C(=O)N[C@@H](Cc1ccc(O)cc1)C(=O)N[C@@H](CC(C)C)C(=O)N[C@@H](CC(=O)O)C(=O)N[C@@H](CCC(=O)O)C(=O)N[C@@H](CCCNC(=N)N)C(=O)N[C@@H](C)C(=O)N[C@@H](C)C(=O)N[C@@H](CCC(N)=O)C(=O)N[C@@H](CC(=O)O)C(=O)N[C@@H](Cc1ccccc1)C(=O)N[C@H](C(=O)N[C@@H](CCC(N)=O)C(=O)N[C@@H](Cc1c[nH]c2ccccc12)C(=O)N[C@@H](CC(C)C)C(=O)N[C@@H](CC(C)C)C(=O)N[C@@H](CC(=O)O)C(=O)NCC(=O)N[C@@H](CCCNC(=N)N)C(=O)N[C@@H](CCCCN)C(N)=O)C(C)C)C(=O)O
EC50 (nM) at GIP receptor (GIP receptor): 2.84 nM | EC50 (nM) at GLP-1 receptor (GLP-1 receptor): 0.003 nM | EC50 (nM) at glucagon receptor (glucagon receptor): 0.015 nM
